In US8703698B2, “Compositions and methods for treating atherosclerosis” (The University of Chicago, priority 2003, dated 2014):

Legend:
[1] = tested on: THP-1 cells; experiment: Cholesterol efflux from cholesterol-laden human THP-1 cells; assay type: cell-based; settings: liposomal formulations; cholesterol-laden THP-1 cells differentiated with phorbol myristate acetate
Method: These monocytes were differentiated into macrophages with phorbol myristate acetate (100 nM). In these experiments, cholesterol-laden human THP-1 cells were exposed to liposomal formulations comprising a peptide corresponding to amino acids 1-20 of murine SAA2.1 (SEQ ID NO:1), a peptide corresponding to amino acids 74-103 of murine SAA2.1 (SEQ ID NO:4), a peptide corresponding to amino acids 1-20 of murine SAA1.1 plus an arginine at the N-terminus (SEQ ID NO:7), or a peptide corresponding to amino acids 1-20 of murine SAA2.1 (SEQ ID NO:1) and a peptide corresponding to amino acids 74-103 (SEQ ID NO:4) of murine SAA2.1. Results from these experiments are depicted in FIG. 4. […] Studies were carried out to determine whether murine SAA2.1 increases cholesterol export from a human derived monocytic cell line, THP-1 (obtained from American Type Culture Collection, Manassas, Va.; ATCC#TIB-202). Human monocytes were cultured in T-75 flasks with 30 ml RPMI 1640 medium containing 2 mM L-glutamine, 4.5 g/L glucose, 10 mM HEPES, 1.0 mM […] and supplemented with 0.05 mM 2-mercaptoethanol and 10% fetal bovine serum. Subsequently, five million cells were placed in each well of a 6-well tissue culture plate. The monocytes were differentiated into macrophages by treatment with phorbol myristate acetate (100 nM). THP-1 macrophages were enriched with cholesterol by incubating with red blood cells membrane fragments (175 μg as cholesterol) that had been previously labelled with 0.5 μCi/mL[^3H]-cholesterol at 37° C. for 6 hours in 0.2% bovine serum albumin, followed by an overnight equilibration period. Cells were washed four times with PBS/BSA prior to efflux studies. Cells were then incubated at 37° C. with 2 mL RPMI-BSA containing 5% LPDS and 50 μg/mL of either native HDL, SAA-HDL, liposomes containing 2 μmoles of apoA-I, SAA1.1 or 2.1, or liposomes containing 0.5 μmoles synthetic peptides corresponding to amino acid residues 1-20 (SEQ ID NO:1), 21-50 (SEQ ID NO:2), 51-80 (SEQ ID NO:3) or 74-103 (SEQ ID NO:4) of murine SAA2.1. The efflux media were collected at 0, 1, 2, 4, 8, 16 and 24 hours, centrifuged to remove cell debris, and then used to measure the exported counts. […] A portion of the cells was lysed in 0.1N NaOH to estimate both the remaining radioactivity and the cellular protein content. Cellular lipids were extracted from the remaining portion of the cells and analyzed by thin-layer chromatography as described by Mendez et al. (J. Clin. Invest. 1994 94:1698-1705) and Oram et al. (Arterioscler. Thromb. 1991 11:403-414). The radioactivity in appropriate spots was measured to determine total cellular cholesterol counts. Efflux of radioactive label to the medium was calculated as the percentage of total counts (cell+medium counts) in each well.

[2] = tested on: cholesterol ester hydrolase; experiment: Rate of hydrolysis of cholesteryl ester in cholesterol-laden J774 cells (cholesterol ester hydrolase activity); assay type: cell-based, murine
Method: Identification of the domain of SAA2.1 that is responsible for enhancing cholesterol ester hydrolase activity was performed in J774 cells preloaded with radio-labeled cholesteryl esters. These experiments were performed in the presence of Sandoz 58-035, an inhibitor of acyl CoA:cholesterol acyl transferase activity, to prevent re-esterification of liberated cholesterol and [^14C]oleate. Incubations proceeded for times ranging from 0 to 24 hours, following which the remaining quantities of [^14C]-labeled cholesteryl oleate in cells were measured to determine the rate of hydrolysis of cholesteryl ester. […] However, an equivalent amount of liposomes containing the synthetic peptide corresponding to amino acid residues 74-103 of murine SAA2.1 caused a 3-fold increase in cholesterol ester hydrolase activity in these cholesterol-laden murine cells. Newly confluent J774 cells were labeled with [^14C]-oleate during cholesterol loading with red blood cell membranes as described above. Cells were then incubated for up to 24 hours with 2 mL of DMEM containing 5% LPDS and 50 μg/mL of either native HDL, SAA-HDL, liposomes containing 2 μmoles of apoA-1, SAA1.1 or 2.1, or liposomes containing 0.5:mol synthetic peptides corresponding to amino acid residues 1-20 (SEQ ID NO:1), 21-50 (SEQ ID NO:2), 51-80 (SEQ ID NO:3) and 74-103 (SEQ ID NO:4) of murine SAA2.1. To determine the rate of cholesteryl ester hydrolysis, 2 μg/mL of the acyl CoA:cholesterol acyl transferase inhibitor Sandoz 58-035 (propanimide, 3-(decyldimethylsilyl)-N-[2-(4-methylphenyl)-1-phenylethyl]-(9Cl) was added during incubation with lipoproteins or liposomes to prevent […] and free cholesterol. To examine whether or not the rate of cholesteryl ester hydrolysis involved the lysosomal cholesteryl ester hydrolase, the cells were cultured in the presence of 50 μg/mL of either native HDL and chloroquine or SAA-HDL and chloroquine (100:M). Chloroquine is an agent that neutralizes the lysosomal proton gradient. At various time points, cellular lipids were extracted and analyzed for cholesteryl ester radioactivity as described above.

[3] = molecular target: T1, acyl CoA:cholesterol acyl transferase (Mus musculus, UniProt Q61263); settings: intact murine macrophages and post-nuclear homogenates; Ely et al. 2001; cited from earlier work
T1 construct: The relative activity of acyl CoA:cholesterol acyl transferase was determined in cholesterol-laden cells; host or cells: J774 mouse macrophages, cholesterol-loaded
T1 sequence (Q61263 1-540): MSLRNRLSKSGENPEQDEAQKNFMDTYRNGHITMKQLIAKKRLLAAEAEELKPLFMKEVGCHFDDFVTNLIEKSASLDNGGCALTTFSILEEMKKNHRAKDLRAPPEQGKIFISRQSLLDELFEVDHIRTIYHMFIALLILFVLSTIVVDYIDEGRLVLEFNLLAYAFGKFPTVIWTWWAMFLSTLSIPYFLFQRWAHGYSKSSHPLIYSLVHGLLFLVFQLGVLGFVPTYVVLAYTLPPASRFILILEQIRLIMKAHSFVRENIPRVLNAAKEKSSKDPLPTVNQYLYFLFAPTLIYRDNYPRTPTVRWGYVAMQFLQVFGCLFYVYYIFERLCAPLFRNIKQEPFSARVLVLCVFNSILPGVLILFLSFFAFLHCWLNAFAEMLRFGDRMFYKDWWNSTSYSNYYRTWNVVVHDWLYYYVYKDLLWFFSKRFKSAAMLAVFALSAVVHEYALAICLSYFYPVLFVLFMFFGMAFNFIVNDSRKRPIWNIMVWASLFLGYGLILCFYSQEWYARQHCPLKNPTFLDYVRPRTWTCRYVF

[4] = molecular target: T1, acyl CoA:cholesterol acyl transferase; experiment: Incorporation of [14C]oleate into cholesteryl ester in cholesterol-laden macrophages (ACAT activity); assay type: cell-based, murine; settings: lipoproteins or protein liposomes; tissue culture
Method: The incorporation of [^14C]oleate into cholesteryl ester was used as a measure of acyl CoA:cholesterol acyl transferase activity to identify compositions inhibiting the enzyme activity. The relative acyl CoA:cholesterol acyl transferase activity was determined in cholesterol-laden murine cells that had been cultured in medium in the absence of liposomes or in the presence of protein-free liposomes or liposomes containing 0.5 μM synthetic peptides corresponding to amino acids 1-20, 21-50, 51-80 and 74-103 of murine SAA2.1.
To load the cells with cholesterol, nearly confluent mono-layers were washed 3 times with phosphate buffered saline containing 2 mg/mL fatty acid-free bovine serum albumin (PBS-BSA) and incubated for 5 hours in DMEM supplemented with 5% lipoprotein-depleted serum (LPDS) (d>1.25 g/mL) and 175 μg of red blood cell membrane cholesterol. For the purpose of pool equilibration of added cholesterol, cell cultures were rinsed twice with PBS-BSA and incubated overnight in DMEM containing 5% LPDS. The relative activity of acyl CoA:cholesterol acyl transferase was determined in cholesterol-laden cells that had been cultured in medium containing no liposomes, protein-free liposomes or liposomes containing 0.5:M synthetic peptides corresponding to amino acid residues 1-20 (SEQ ID NO:1), 21-50 (SEQ ID NO:2), 51-80 (SEQ ID NO:3) or 74-103 (SEQ ID NO:4) of murine SAA2.1, respectively. Following 3 hours incubation with the above media, [^14C]-oleate was added and the cells were incubated for another 3 hour period (Mendez et al. J. Clin. Invest. 1994 94:1698-1705; Oram et al. Arterioscler. Thromb. 1991 11:403-414). Cells were chilled on ice and washed twice with PBS-BSA and twice with PBS. After addition of [^3H]-cholesteryl oleate (6000 dpm/well) as an internal standard, the lipids were extracted from the labeled cells and analyzed by thin-layer chromatography as described by Mendez et al. (J. Clin. Invest. 1994 94:1698-1705) and Oram et al. (Arterioscler. Thromb. 1991 11:403-414). The radioactivity in appropriate spots was measured to determine the incorporation of radioactivity into cholesteryl esters as a measure of acyl CoA:cholesterol acyl transferase activity.

[5] = tested on: J774 macrophages; experiment: Cholesterol efflux from cholesterol-laden J774 macrophages to apolipoprotein liposomes with 8-bromo-cAMP or methyl-β-cyclodextrin; assay type: cell-based, mouse; settings: 8-bromo-cAMP 0.3 mM, 12 hours; Sandoz 58-035 present
From the text: The export process of cholesterol is coupled to the ATP binding cassette transporter (ABCA1) pathway. Lipid efflux to apolipoproteins has been shown previously to be stimulated by treatment of murine macrophages with cAMP analogues (Lin et al. 2002 Biochem Biophys Res. Commun. 290:663-669; Oram et al. 2000 J. Biol. Chem. 275:34508-34511). Also, the expression of ABCA1 is induced by cAMP treatment (Lin et al. 2002 Biochem Biophys Res. Commun. 290:663-669; Oram et al. 2000 J. Biol. Chem. 275:34508-34511). The inventors herein examined the effect of 8-bromo-cAMP (0.3 mM) on cholesterol efflux by liposomes containing various apolipoproteins when incubated with cholesterol-laden J774 macrophages. Such cells were pre-labeled with [^3H]-cholesterol in the presence of Sandoz 58-035, an ACAT inhibitor, to ensure that all of the radiolabeled cholesterol released from the cells was derived from the un-esterified cholesterol pool, and the cells were treated for 12 hours with 8-bromo-cAMP. This was followed by incubation with various acceptors. The fractional release of cellular labeled cholesterol was determined as a function of time.
To investigate whether an apolipoprotein free cholesterol acceptor such as cyclodextrin has the ability to catalyze the removal of cholesterol from macrophages, cholesterol-loaded and labeled J774 cells were incubated with liposomes and methyl-β-cyclodextrin (0.1 mM) (CD).
To examine whether cholesterol export from J774 cells to medium containing liposomes containing 2 μM murine apoA-1, SAA1.1 or SAA2.1 is a cAMP-dependent process, the radio-labeled cholesterol-laden cells were incubated overnight with 8-Br-cAMP (0.3 mM), prior to the addition of liposomes containing 2 μM murine apoA-1, SAA1.1 or SAA2.1 to the culture medium. Cholesterol efflux to the medium was then determined at the indicated time points as described above. Efflux of radioactive label to the medium was calculated as a percentage of total counts in each well.

[6] = molecular target: T1, acyl CoA:cholesterol acyl transferase; experiment: ACAT activity in macrophage post-nuclear homogenates; assay type: biochemical, murine; settings: macrophage post-nuclear homogenates as enzyme source
From the text: The in vitro effects of acute phase-HDL (AP-HDL;HDL-SAA) on acyl CoA:cholesterol acyl transferase and cholesterol ester hydrolase activities and on cellular cholesterol export were studied by the inventors using purified enzymes, cell homogenates, and whole cells. […] In contrast, murine SAA1.1 and apoA-1 had no effect. […] Using macrophages preloaded with radio-labeled cholesterol and injected intravenously into either inflamed or un-inflamed mice, it was shown that the inflamed mice, which have high SAA2.1 levels, effluxed cholesterol more rapidly and to a greater extent (6-fold greater) than their un-inflamed counterparts.

Molecule: GFFSFIGEAFQGAGDMWRAY [SEQ ID NO:5, synthetic peptide, residues 1-20 of murine SAA1.1]
- cholesterol efflux, time course (FIG. 4) [1]: inactive

Molecule: GFFSFVHEAFQGAGDM [murine SAA2.11-16, 16-mer released by cyanogen bromide cleavage of murine SAA2.1, residues 1-16, reference compound]
- effect on cholesterol ester hydrolase activity ([2]; fragment released by cyanogen bromide cleavage): produced no effect
- macrophage ACAT activity [3]: profound effect inhibiting ACAT activity in a dose-dependent manner

Molecule: RGFFSFIGEAFQGAGDMWRAY [SEQ ID NO:7, residues 1-20 of murine SAA1.1 plus an arginine at the N-terminus]
- cholesterol efflux, time course (FIG. 4) [1]: effectively increased cholesterol efflux

B1: apoA-1: apolipoprotein isolated from acute phase murine plasma, reconstituted in liposomes (protein, UniProt Q00623 25-264, looked up)
Apolipoprotein A-I: DEPQSQWDKVKDFANVYVDAVKDSGRDYVSQFESSSLGQQLNLNLLENWDTLGSTVSQLQERLGPLTRDFWDNLEKETDWVRQEMNKDLEEVKQKVQPYLDEFQKKWKEDVELYRQKVAPLGAELQESARQKLQELQGRLSPVAEEFRDRMRTHVDSLRTQLAPHSEQMRESLAQRLAELKSNPTLNEYHTRAKTHLKTLGEKARPALEDLRHSLMPMLETLKTQVQSVIDKASETLTAQ
modifications: reconstituted in liposomes
- cholesterol ester hydrolase activity in intact cholesterol-laden macrophages ([2]; lipoproteins or protein liposomes, tissue culture): no effect on enzyme activities
- acyl CoA:cholesterol acyl transferase activity in intact cholesterol-laden macrophages [4]: no effect on enzyme activities
- increase in the initial rate of cholesterol efflux to liposomes after cAMP pre-treatment versus untreated cells [5]: 32.7%
- acyl CoA:cholesterol acyl transferase activity [6]: had no effect
